The text below walks through data of paper PMC9654219, “Molecular Mechanism of Sirtuin 1 Modulation by the AROS Protein” (International Journal of Molecular Sciences, 2022).

T1: AROS 1–89 (N-terminus of AROS) (human, UniProt Q86WX3 1-89)
T1 construct: human AROS (RPS19BP1), residues 1-89; Preparation is told for 'human AROS constructs' in general
T1 sequence (looked up): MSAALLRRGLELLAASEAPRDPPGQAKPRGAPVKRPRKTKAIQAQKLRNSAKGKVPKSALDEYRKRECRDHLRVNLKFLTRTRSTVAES

T2: Sirt3 residues 118–399 (human, UniProt Q9NTG7 118-399)
T2 construct: human Sirt3, residues 118-399 (pVFT3S); source: E. coli BL21 (DE3) CodonPlus, purified (Ni beads, TEV cleavage, ion exchange, S200 gel filtration)
T2 sequence (looked up): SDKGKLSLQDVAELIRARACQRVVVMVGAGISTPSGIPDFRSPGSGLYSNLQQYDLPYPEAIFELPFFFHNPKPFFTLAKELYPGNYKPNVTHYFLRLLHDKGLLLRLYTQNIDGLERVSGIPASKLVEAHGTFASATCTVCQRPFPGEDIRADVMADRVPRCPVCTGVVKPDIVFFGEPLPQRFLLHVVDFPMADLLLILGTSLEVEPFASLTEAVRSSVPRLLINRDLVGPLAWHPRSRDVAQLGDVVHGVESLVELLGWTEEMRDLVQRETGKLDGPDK

T3: full-length Sirt1 (human, UniProt Q96EB6 1-747)
T3 sequence (looked up): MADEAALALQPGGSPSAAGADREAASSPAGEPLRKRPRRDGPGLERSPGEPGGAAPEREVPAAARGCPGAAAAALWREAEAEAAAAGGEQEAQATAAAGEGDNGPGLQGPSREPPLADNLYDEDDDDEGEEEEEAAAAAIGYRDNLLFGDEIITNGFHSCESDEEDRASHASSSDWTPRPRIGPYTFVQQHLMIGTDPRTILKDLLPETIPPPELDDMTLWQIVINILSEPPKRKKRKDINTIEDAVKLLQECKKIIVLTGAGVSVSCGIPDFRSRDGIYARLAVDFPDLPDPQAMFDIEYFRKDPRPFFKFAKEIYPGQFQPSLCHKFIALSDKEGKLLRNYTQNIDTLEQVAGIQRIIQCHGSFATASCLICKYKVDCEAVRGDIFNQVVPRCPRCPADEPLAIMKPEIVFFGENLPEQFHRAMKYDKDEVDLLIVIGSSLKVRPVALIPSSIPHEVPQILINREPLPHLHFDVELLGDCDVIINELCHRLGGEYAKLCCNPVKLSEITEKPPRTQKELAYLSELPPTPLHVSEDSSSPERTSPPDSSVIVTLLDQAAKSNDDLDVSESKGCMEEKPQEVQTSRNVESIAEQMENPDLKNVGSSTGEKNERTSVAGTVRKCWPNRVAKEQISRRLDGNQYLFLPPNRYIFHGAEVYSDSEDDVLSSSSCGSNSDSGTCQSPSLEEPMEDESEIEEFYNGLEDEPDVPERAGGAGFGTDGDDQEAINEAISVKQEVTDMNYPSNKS

T4: Sirt5 residues 34–302 (human, UniProt Q9NXA8 34-302)
T4 construct: human Sirt5, residues 34-302 (pET151/D-TOPO); source: E. coli BL21 (DE3) CodonPlus, purified (Ni beads, TEV cleavage, S200 gel filtration)
T4 sequence (looked up): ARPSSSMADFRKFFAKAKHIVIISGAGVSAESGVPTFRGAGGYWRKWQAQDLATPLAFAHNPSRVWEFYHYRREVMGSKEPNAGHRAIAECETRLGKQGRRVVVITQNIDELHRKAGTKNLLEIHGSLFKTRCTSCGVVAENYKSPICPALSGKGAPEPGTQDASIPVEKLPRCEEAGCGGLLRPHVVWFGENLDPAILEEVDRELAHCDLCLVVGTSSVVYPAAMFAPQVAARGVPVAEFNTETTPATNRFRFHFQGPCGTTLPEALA

B1: AROS peptide 96-109 (peptide)
peptide: RQNRGRKACDRPVA
notes: human AROS (RPS19BP1), residues 96-109; also called AROS96-109; AROS 96–109; source: synthetic peptide, bought: GL Biochem
B2: AROS peptide 80-91 (peptide)
peptide: TRTRSTVAESVS
notes: human AROS (RPS19BP1), residues 80-91; also called AROS80-91; AROS 80–91; source: synthetic peptide, bought: GL Biochem
B3: mini-Sirt1ex687 (domain or fragment)
chain: GPYTFVQQHLMIGTDPRTILKDLLPETIPPPELDDMTLWQIVINILSEPPKRKKRKDINTIEDAVKLLQECKKIIVLTGAGVSVSCGIPDFRSRDGIYARLAVDFPDLPDPQAMFDIEYFRKDPRPFFKFAKEIYPGQFQPSLCHKFIALSDKEGKLLRNYTQNIDTLEQVAGIQRIIQCHGSFATASCLICKYKVDCEAVRGDIFNQVVPRCPRCPADEPLAIMKPEIVFFGENLPEQFHRAMKYDKDEVDLLIVIGSSLKVRPVALIPSSIPHEVPQILINREPLPHLHFDVELLGDCDVIINELCHRLGGEYAKLCCNPVGGGSGGGSQYLFLPPNRYIFHGAEVYSDSEDDVLSSSSCGSNSDSGTCQSPSLEE
B4: Sirt1 144–230 (N-terminus and SBD) (domain or fragment, human, UniProt Q96EB6 144-230, looked up)
chain: DNLLFGDEIITNGFHSCESDEEDRASHASSSDWTPRPRIGPYTFVQQHLMIGTDPRTILKDLLPETIPPPELDDMTLWQIVINILSE
notes: also called Sirt1-SBD
B5: AROS peptide 62-71 (peptide)
peptide: EYRKRECRDH
notes: human AROS (RPS19BP1), residues 62-71; also called AROS62-71; AROS 62–71; source: synthetic peptide, bought: GL Biochem
B6: active regulator of Sirt1 (AROS), full length, residues 1-136 (natural protein, human, UniProt Q86WX3 1-136, looked up)
chain: MSAALLRRGLELLAASEAPRDPPGQAKPRGAPVKRPRKTKAIQAQKLRNSAKGKVPKSALDEYRKRECRDHLRVNLKFLTRTRSTVAESVSQQILRQNRGRKACDRPVAKTKKKKAEGTVFTEEDFQKFQQEYFGS
notes: human AROS (RPS19BP1), residues 1-136, with N-terminal hexahistidine tag and TEV protease cleavage site (modified pET19b); No tag removal is described; 15N-labelled for the NMR titrations; In MST either AROS or Sirt1 carried Cy5 on lysines; also called AROS 1–136; full-length AROS; not shown: His6, N-terminal, kept

Test [1] deals with B3. The experiment in a line: MST; either AROS or Sirt1 labelled with Cy5-NHS ester (40–120 nM labelled protein); 50 mM Na2HPO4/NaH2PO4 pH 7.0, 250 mM NaCl, 2 mg/mL BSA, 20 °C; Monolith NT.115. The note with it: both partners purified.
Test [2] concerns the target B4. Described as above. The note with it: both partners purified.
Test [3] has as its target B6. The test is described as above. The note with it: both partners purified.
For test [4], the target named is T1, AROS 1–89 (N-terminus of AROS). The test is described as above. The following applies: both partners purified.
The target of test [5] is T2, Sirt3 residues 118–399. The experiment in a line: crystal structure; 10 mg/mL Sirt3 pre-incubated with 1 mM AROS peptide 62–71 and 1 mM AROS peptide 96–109; 12% PEG 8.000, 0.1 M HEPES pH 7.5, 0.2 M NaCl, 20 °C; 3.27 Å. The note with it: both partners purified.
Test [6] addresses T3, full-length Sirt1. The experiment in a line: cell-based or functional assay.
Test [7] has as its target T4, Sirt5 residues 34–302. Put plainly: cross-linking; 2 mM DSSO, 50 µM of each protein, 50 mM NaHPO4 pH 7, 250 mM NaCl, RT; SDS-PAGE; bands analysed by LC-ESI-MS/MS. The note with it: both partners purified.

What is called Kd is the concentration at which binding is half-saturated. A low value points to tighter binding. Consider B1, for which the Kd in test [1] turned out to be 151 ± 31 µM.
Consider B2, for which the Kd came out at 721 ± 310 µM in test [1] and 579 ± 102 µM in test [2].
As to B3, the dissociation constant (Kd) in test [3] turned out to be 1.3 ± 0.2 µM; in test [4], 65 ± 9 µM.
In test [4], B4 gave a dissociation constant Kd of 209 ± 67 µM.
Take B5: the dissociation constant (Kd) in test [1] stood at 86 ± 16 µM; in test [2], 166 ± 24 µM. In addition, in test [5], the binding result was “binds”.
Take B6: the “increase of KM for the acetylated FdL substrate peptide with 40 µM AROS (FdL activity assay, substrate titration)” value in test [6] is roughly 3 fold. Further, in test [7], the binding result was “binds”.
